# Results: paper PMC11630628 (Molecular Plant, 2024)
# Ends that are not written are not given here. * marks the point of attachment. 5FAM = O=C1OC2(c3ccc(O)cc3Oc3cc(O)ccc32)c2ccc(C(=O)*)cc21
# T1: MIK2 ectodomain (MIK2^LRR, residues 45-707) fused with a 6x His-MBP tag (Arabidopsis thaliana, UniProt Q8VZG8 45-707)
# T1 chain: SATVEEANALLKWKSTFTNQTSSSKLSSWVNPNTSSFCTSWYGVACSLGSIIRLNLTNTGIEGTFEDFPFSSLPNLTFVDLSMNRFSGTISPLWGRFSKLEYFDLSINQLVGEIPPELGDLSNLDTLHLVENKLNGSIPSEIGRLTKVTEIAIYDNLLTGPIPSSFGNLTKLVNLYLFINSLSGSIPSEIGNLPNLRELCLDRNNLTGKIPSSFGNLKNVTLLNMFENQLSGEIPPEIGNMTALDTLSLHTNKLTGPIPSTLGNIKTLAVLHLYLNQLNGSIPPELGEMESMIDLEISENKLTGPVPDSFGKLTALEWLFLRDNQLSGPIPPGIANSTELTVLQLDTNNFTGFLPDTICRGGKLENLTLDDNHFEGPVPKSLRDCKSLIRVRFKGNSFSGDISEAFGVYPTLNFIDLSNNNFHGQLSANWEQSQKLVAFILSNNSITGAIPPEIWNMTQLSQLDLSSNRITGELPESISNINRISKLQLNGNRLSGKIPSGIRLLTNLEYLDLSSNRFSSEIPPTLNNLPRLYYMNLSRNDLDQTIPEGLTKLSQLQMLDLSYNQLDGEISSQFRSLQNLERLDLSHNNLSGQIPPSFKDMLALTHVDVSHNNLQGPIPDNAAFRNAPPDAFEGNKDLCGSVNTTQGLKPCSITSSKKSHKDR
# T2: MIK2 ectodomain (MIK2^LRR, residues 45-707) fused with a 6x His-MBP tag (Arabidopsis thaliana, UniProt Q8VZG8 45-707)
# T2 construct: ectodomain residues 45-707, without the putative N-terminal signal peptide; Cloned into pET41 with a 6x His-MBP tag; no cleavage of the tag is told; also called His-MBP-tagged MIK2^LRR; ectodomain of MIK2; source: E. coli BL21, purified (Mag-Beads His-Tag Protein Purification Kit)
# T2 sequence (looked up): T1 chain
# T3: MIK2 ectodomain (MIK2^LRR, residues 45-707) fused with a 6x His-MBP tag (Arabidopsis thaliana), Q8VZG8
# T3 chain: T1 chain
# Columns and labels:
# [1] = test system: leaf senescence in Arabidopsis; settings: ref Gully et al., 2015; cited from earlier work
# Excerpt: Senescence, a crucial biological event in plant development, involves the coordinated breakdown of cellular components to recycle nutrients, aiding adaptation to changing environments. It optimizes nutrient storage and reuse, particularly in leaves, the primary photosynthetic organs. Initiation of leaf senescence prompts various physiological changes, including chlorophyll (Chl) reduction and macromolecule degradation, enabling nutrient recycling that supports the growth of seeds and fruits ([Yang et al., 2014]; [Kim et al., 2018]; [Woo et al., 2019]; [Guo et al., 2021]). Efficient senescence ...
# [2] = test system: ANJEA-FERONIA (ANJ–FER) receptor complex; design: method as in Liu et al., 2021; settings: ref Liu et al., 2021; cited from earlier work
# [3] = test system: FERONIA (FER) / EFR/FLS2-BAK1 complex; design: method as in Stegmann et al., 2017; settings: ref Stegmann et al., 2017; cited from earlier work
# [4] = target: T1, MIK2 ectodomain (MIK2^LRR, residues …); assay: MST; in presence of competitor SCOOP10
# [5] = target: T2, MIK2 ectodomain (MIK2^LRR, residues …); assay: MST; Monolith NT.115; 0.05 μM 5-FAM-labelled peptide, MIK2^LRR diluted from 20 μM in ddH2O, 10 min at room temperature; 20% LED power, 40% MST power; settings: both partners purified
# [6] = target: T3, MIK2 ectodomain (MIK2^LRR, residues …); assay: MST; Figure 5F, competition: 0.5 μM FAM-SCOOP10 and 15 μM MIK2^LRR mixed 10 min at room temperature in the dark, then a range of concentrations of SCOOP12, 10 min; 20% LED power, 20% MST power; the reverse set-up (SCOOP10 on MIK2-SCOOP12) is not described
# [7] = target: T2, MIK2 ectodomain (MIK2^LRR, residues …); assay: MST; Figure 5F, titrations in the absence of the competing peptide; conditions of these titrations not told apart from the others; settings: both partners purified
# [8] = target: T1, MIK2 ectodomain (MIK2^LRR, residues …); assay: MST; in presence of competitor SCOOP12
molecule,measurement,setting,value
"plant elicitor peptide PEP1 (ATKVKAKQRGKEKVSSGRPGQHN; Elicitor peptide 1; UniProt Q9LV87 70-92, looked up) [plant elicitor peptide, one of the first plant phytocytokines]",leaf senescence modulation,[1],function as a leaf senescence modulator in Arabidopsis
"RALF23: RAPID ALKALINIZATION FACTOR (RALF) peptide (ATRRYISYGALRRNTIPCSRRGASYYNCRRGAQANPYSRGCSAITRCRRS; Protein RALF-like 23; UniProt Q9LUS7 89-138, looked up)",competition with POLLEN COAT PROTEIN B-class peptides,[2],compete with the POLLEN COAT PROTEIN B-class peptides
same,effect on FER-mediated receptor complex assembly,[3],suppresses the formation of the EFR/FLS2-BAK1 complex
5FAM-PVRSSQSSQAGGR [SCOOP12 peptide labeled with 5-FAM at the N terminus (FAM-SCOOP12)],Kd,[4],1160 nM
same,Kd,[5],22 ± 3.02 nM
"PVRSSQSSQAGGR (modifications not checked) [SCOOP12 peptide (unlabeled, used as competitor), B3H7I1 44-78]",KD printed for the inhibition of the SCOOP10-MIK2 interaction by SCOOP12,[6],279000 nM
5FAM-PNGDIFTGPSGSGHGGGR [SCOOP10 peptide labeled with FAM at the N-terminus (5'-FAM-SCOOP10)],Kd,[7],753 nM
same,Kd,[5],13.5 ± 1.47 nM
same,Kd,[8],279000 nM
